Like-named read-outs stand apart in the source and are kept apart here.
How the values were obtained:
[1] = biological target: Fno (F420H2:NADP+ oxidoreductase) (Archaeoglobus fulgidus, UniProt O29370, I135V); test: tryptophan fluorescence titration, fit with Hill coefficient; format: binding
Description: (§1) tryptophan fluorescence titration, fit with Hill coefficient on Fno (F420H2:NADP+ oxidoreductase)

[2] = biological target: Fno (F420H2:NADP+ oxidoreductase) (Archaeoglobus fulgidus, UniProt O29370, I135G); test: as above; format: binding
Description: as §1

[3] = biological target: Fno (F420H2:NADP+ oxidoreductase) (Archaeoglobus fulgidus, UniProt O29370, I135A); test: as above; format: binding
Description: as §1

purified protein [4] = substrate: O=c1nc2n(C[C@H](O)[C@H](O)[C@H](O)CO)c3cc(O)ccc3cc-2c(=O)[nH]1; test: purified protein; format: biochemical, Archaeoglobus fulgidus; conditions: 600 µM NADPH, 50 mM MES/NaOH pH 6.5, 22 °C
purified protein [5] = substrate: NC(=O)C1=CN([C@@H]2O[C@H](COP(=O)(O)OP(=O)(O)OC[C@H]3O[C@@H](n4cnc5c(N)ncnc54)[C@H](OP(=O)(O)O)[C@@H]3O)[C@@H](O)[C@H]2O)C=CC1; test: purified protein; format: biochemical, Archaeoglobus fulgidus; conditions: 25 µM FO, 50 mM MES/NaOH pH 6.5, 22 °C, phase 1 of biphasic fit, negative cooperativity

NC(=O)C1=CN([C@@H]2O[C@H](COP(=O)(O)OP(=O)(O)OC[C@H]3O[C@@H](n4cnc5c(N)ncnc54)[C@H](OP(=O)(O)O)[C@@H]3O)[C@@H](O)[C@H]2O)C=CC1 [NADPH]
Kd ([1]; read-out: Kd^NADPH): 7.4 ± 1.1 nM
Kd ([2]; read-out: Kd^NADPH): 1.5 ± 0.1 nM
Kd ([3]; read-out: Kd^NADPH): 6.7 ± 0.7 nM

O=c1nc2n(C[C@H](O)[C@H](O)[C@H](O)CO)c3cc(O)ccc3cc-2c(=O)[nH]1 [FO]
Kd ([1]; read-out: Kd^FO): 7.5 ± 0.9 nM
Kd ([2]; read-out: Kd^FO): 6.9 ± 0.3 nM
Kd ([3]; read-out: Kd^FO): 5.6 ± 0.2 nM

B1: Fno (F420H2:NADP+ oxidoreductase) (Archaeoglobus fulgidus DSM 4304; I135V) (protein)
chain: MRVALLGGTGNLGKGLALRLATLGHEIVVGSRREEKAEAKAAEYRRIAGDASITGMKNEDAAEACDIAVLTIPWEHAIDTARDLKNILREKIVVSPLVPVSRGAKGFTYSSERSAAEIVAEVLESEKVVSALHTVPAARFANLDEKFDWDVPVCGDDDESKKVVMSLISEIDGLRPLDAGPLSNSRLVESLTPLILNIMRFNGMGELGIKFL
Km (purified protein [4]): 3.7 ± 0.4 µM
kcat (purified protein [4]): 1.8 ± 0.1 s⁻¹
kcat/Km (purified protein [4]): 490000 ± 55000 M⁻¹ s⁻¹
Km (purified protein [5]): 0.7 ± 0.1 µM
kcat (purified protein [5]): 1.5 ± 0.09 s⁻¹
kcat/Km (purified protein [5]): 2.1e+06 ± 340000 M⁻¹ s⁻¹

B2: Fno (F420H2:NADP+ oxidoreductase) (Archaeoglobus fulgidus DSM 4304; I135G) (protein)
chain: MRVALLGGTGNLGKGLALRLATLGHEIVVGSRREEKAEAKAAEYRRIAGDASITGMKNEDAAEACDIAVLTIPWEHAIDTARDLKNILREKIVVSPLVPVSRGAKGFTYSSERSAAEIVAEVLESEKVVSALHTGPAARFANLDEKFDWDVPVCGDDDESKKVVMSLISEIDGLRPLDAGPLSNSRLVESLTPLILNIMRFNGMGELGIKFL
Km (purified protein [4]): 3.6 ± 0.4 µM
kcat (purified protein [4]): 0.7 s⁻¹
kcat/Km (purified protein [4]): 200000 M⁻¹ s⁻¹

B3: Fno (F420H2:NADP+ oxidoreductase) (Archaeoglobus fulgidus DSM 4304; I135A) (protein)
chain: MRVALLGGTGNLGKGLALRLATLGHEIVVGSRREEKAEAKAAEYRRIAGDASITGMKNEDAAEACDIAVLTIPWEHAIDTARDLKNILREKIVVSPLVPVSRGAKGFTYSSERSAAEIVAEVLESEKVVSALHTAPAARFANLDEKFDWDVPVCGDDDESKKVVMSLISEIDGLRPLDAGPLSNSRLVESLTPLILNIMRFNGMGELGIKFL
Km (purified protein [4]): 3.6 ± 0.5 µM
kcat (purified protein [4]): 1.6 ± 0.1 s⁻¹
kcat/Km (purified protein [4]): 450000 ± 66000 M⁻¹ s⁻¹

Reference: publication PMC5614548, “Effects of isoleucine 135 side chain length on the cofactor donor-acceptor distance within F420H2:NADP^+ oxidoreductase: A kinetic analysis^” (Biochemistry and Biophysics Reports, 2016)
